Data on one substance can be found in US20200392472.

Bounds are passed on as bounds.

The data set has as its system T1, GeoCas9 (Geobacillus stearothermophilus).
T1 sequence: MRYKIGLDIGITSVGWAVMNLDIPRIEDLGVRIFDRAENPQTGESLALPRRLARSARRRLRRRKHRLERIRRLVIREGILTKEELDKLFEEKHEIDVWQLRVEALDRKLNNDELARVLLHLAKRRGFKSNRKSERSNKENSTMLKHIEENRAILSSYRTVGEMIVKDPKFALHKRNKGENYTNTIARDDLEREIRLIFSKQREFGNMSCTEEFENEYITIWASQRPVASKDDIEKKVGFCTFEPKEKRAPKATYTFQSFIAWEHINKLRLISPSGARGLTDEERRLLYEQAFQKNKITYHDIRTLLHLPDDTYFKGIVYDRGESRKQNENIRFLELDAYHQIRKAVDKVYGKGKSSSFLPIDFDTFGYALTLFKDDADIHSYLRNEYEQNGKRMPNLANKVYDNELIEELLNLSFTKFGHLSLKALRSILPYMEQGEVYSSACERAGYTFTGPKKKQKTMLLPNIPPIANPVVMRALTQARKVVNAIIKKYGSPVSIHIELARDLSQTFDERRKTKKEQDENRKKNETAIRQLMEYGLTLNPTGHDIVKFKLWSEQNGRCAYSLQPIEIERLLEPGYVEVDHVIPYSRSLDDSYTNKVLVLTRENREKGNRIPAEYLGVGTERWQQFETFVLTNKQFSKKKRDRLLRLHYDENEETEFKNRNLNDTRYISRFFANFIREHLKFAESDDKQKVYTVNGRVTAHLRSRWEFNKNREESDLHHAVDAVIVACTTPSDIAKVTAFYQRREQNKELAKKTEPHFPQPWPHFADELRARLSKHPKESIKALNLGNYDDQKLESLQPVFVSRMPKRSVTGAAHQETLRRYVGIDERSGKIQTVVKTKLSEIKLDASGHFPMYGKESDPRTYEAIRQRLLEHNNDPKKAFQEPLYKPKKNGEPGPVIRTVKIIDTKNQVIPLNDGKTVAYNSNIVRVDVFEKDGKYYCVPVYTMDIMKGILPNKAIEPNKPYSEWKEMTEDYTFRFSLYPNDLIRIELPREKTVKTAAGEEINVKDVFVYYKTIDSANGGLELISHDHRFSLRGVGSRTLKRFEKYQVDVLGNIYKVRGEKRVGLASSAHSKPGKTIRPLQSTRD
As to the kind of experiment: cleavage_in_vitro. To be noted: 21-22 nt spacer cleaves more than 5-fold faster than 20 nt; 37 C; exact substrate PAM not given.

For the substance “GeoCas9 sgRNA with 20 nt spacer ; radiolabeled target DNA with CRAA PAM”, the cleavage rate fold increase was greater than 5 fold.
